Data published in publication PMC2033583, “Temperature sensitivity for conformation is an intrinsic property of wild-type p53”.

Molecular target: p53 (murine wild-type) (mouse, UniProt P02340 1-390)
Assay: EMSA; 1,10-phenanthroline, 20 min at 30 C; PAb 421; at least partially resistant to chelator; EMSA on 4% polyacrylamide gels with PAb 421, reticulocyte lysate p53 pre-exposed to OP 20 min at 30 or 37 C; binding buffer, salt and pH not given (as in Hainaut and Milner 1993b)
Details: protein: ivt; chain copies: 4; label: 32P

p53 (murine wild-type), sequence (P02340 whole entry): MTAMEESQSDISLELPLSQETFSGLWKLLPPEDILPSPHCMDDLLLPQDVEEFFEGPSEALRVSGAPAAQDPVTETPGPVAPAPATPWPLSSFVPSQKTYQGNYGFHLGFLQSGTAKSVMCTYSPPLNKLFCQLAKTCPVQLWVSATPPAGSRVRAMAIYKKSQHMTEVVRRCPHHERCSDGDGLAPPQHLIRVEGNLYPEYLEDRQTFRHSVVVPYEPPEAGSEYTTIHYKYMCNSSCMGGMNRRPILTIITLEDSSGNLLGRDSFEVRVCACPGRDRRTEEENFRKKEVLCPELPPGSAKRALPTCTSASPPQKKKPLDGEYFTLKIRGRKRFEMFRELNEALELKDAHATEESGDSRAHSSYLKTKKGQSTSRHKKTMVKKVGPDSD

B1: p53 CON (dsDNA)
DNA 1: GGGCATGTCCGGGCATGTCC
DNA 2: GGACATGCCCGGACATGCCC
binding result: binds
